Reference: patent US20160175384A1 (published 2016)
Blank lines part the entries; values can stand above or below the binder they belong to. Square brackets hold non-standard residues; d marks the D form. Side chains are listed from the residue outwards. * marks the point of attachment. IR800CW = near-infrared dye IRDye800CW (maleimide); Cy5 = Cy5 fluorescent dye (maleimide); d2Nal = N[C@H](Cc1ccc2ccccc2c1)C(=O)O; Butanoyl(4-Ph) = O=C(CCCc1ccccc1)*; Butanoyl(4-ethynyl) = C#CCCCC(=O)*; hPhe = N[C@@H](CCc1ccccc1)C(=O)O; Nle = CCCC[C@H](N)C(=O)O; Mpa = O=C(O)CCS

How the values were obtained:
[1] = biological target: T1, human melanocortin 1 receptor (human, UniProt Q01726 1-317); test: competition binding vs Eu-NDP-a-MSH, time-resolved fluorescence, A375/hMC1R cells
T1 construct: whole, on cells; also called hMC1R; MC1R

[2] = biological target: T2, human melanocortin 4 receptor (human, UniProt P32245 1-332); test: competitive binding vs Eu-NDP-alpha-MSH, time-resolved fluorescence, HEK293/hMC4R cells
T2 construct: whole, on cells; also called hMC4R; MC4R
Description: (§1) Competitive binding assays were performed using HCT116/hMC1R cells and HEK293/hMC4R or hMC5R as previously described, with slight modifications. HCT116/hMC1R cells were plated in black PerkinElmer 96-well plates and HEK293/hMC4R and HEK293/hMC5R cells were plated on SigmaScreen Poly-D-Lysine Coated Plates (SigmaAldrich), all at a density of 10,000-30,000 cells/well. Poly-D-Lysine Coated Plates contain a PDL polymer coating that creates a uniform positive charge at the surface of the plastic, thereby facilitating cell attachment, growth and differentiation. […] Both labeled and non-labeled ligands were diluted in binding media (DMEM, 1 mM 1,10-phenanthroline, 200 mg/L bacitracin, 0.5 mg/L leupeptin, 0.3% BSA). In the case of the triblock polymer micelle solutions, micelles were allowed to equilibrate in solution for a period of 30 min prior to cell addition. Cells were incubated with labeled and non-labeled ligands for 1 hour at 37° C. Following incubation, cells were washed three times with wash buffer (50 mM Tris-HCl, 0.2% BSA, 30 mM NaCl) and 50 µL of enhancement solution (PerkinElmer) was added to each well. Cells were incubated for an additional 30 min at 37° C. prior to reading. […] Competition curves were analyzed with GraphPad Prism software using the sigmoidal dose-response (variable slope) classical equation for nonlinear regression analysis.

[3] = biological target: T1, human melanocortin 1 receptor; test: competitive binding vs Eu-NDP-alpha-MSH, time-resolved fluorescence, HCT116/hMC1R cells
Description: as §1

[4] = biological target: T3, human melanocortin 5 receptor (human, UniProt P33032 1-325); test: competitive binding vs Eu-NDP-alpha-MSH, time-resolved fluorescence, HEK293/hMC5R cells
T3 construct: whole, on cells; also called hMC5R; MC5R
Description: as §1

[5] = biological target: T1, human melanocortin 1 receptor; test: ratio of Ki values (MC4R over MC1R) from Eu-NDP-alpha-MSH competitive binding
[6] = biological target: T1, human melanocortin 1 receptor; test: ratio of Ki values (MC5R over MC1R) from Eu-NDP-alpha-MSH competitive binding
[7] = biological target: T1, human melanocortin 1 receptor; test: competitive binding vs Eu-NDP-alpha-MSH, HCT116/hMC1R cells
[8] = biological target: T1, human melanocortin 1 receptor; test: cell-based or functional assay
[9] = biological target: MC5R expressed in the kidneys of the xenograft-bearing mice; test: cell-based or functional assay
Sequence of MC5R expressed in the kidneys of the xenograft-bearing mice (P41149 whole entry): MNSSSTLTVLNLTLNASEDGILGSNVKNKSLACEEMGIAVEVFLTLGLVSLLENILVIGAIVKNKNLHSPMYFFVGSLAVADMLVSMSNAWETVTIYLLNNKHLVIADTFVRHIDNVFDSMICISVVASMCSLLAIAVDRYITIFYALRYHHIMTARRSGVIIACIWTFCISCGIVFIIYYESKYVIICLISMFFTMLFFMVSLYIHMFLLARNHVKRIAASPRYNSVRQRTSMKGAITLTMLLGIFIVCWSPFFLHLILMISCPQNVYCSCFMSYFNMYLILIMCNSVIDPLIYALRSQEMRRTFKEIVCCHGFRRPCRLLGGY

T3 sequence (P33032 whole entry): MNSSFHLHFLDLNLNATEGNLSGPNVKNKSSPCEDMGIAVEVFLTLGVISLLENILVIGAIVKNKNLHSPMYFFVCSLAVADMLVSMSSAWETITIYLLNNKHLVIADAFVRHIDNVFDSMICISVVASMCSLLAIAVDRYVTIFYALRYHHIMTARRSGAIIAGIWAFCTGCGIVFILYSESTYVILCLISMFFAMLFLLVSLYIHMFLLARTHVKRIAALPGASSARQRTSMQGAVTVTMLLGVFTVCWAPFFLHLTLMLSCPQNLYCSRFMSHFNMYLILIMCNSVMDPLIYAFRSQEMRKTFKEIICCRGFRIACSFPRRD
T1 sequence (Q01726 whole entry): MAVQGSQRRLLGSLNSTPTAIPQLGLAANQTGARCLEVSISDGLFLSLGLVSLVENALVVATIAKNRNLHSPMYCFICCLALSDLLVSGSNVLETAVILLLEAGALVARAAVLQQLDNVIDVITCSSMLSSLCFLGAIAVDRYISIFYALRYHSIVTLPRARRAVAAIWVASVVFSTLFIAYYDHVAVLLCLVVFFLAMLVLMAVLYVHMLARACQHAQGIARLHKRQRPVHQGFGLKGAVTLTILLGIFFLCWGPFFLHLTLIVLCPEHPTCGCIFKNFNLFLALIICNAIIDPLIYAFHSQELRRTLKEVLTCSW
T2 sequence (P32245 whole entry): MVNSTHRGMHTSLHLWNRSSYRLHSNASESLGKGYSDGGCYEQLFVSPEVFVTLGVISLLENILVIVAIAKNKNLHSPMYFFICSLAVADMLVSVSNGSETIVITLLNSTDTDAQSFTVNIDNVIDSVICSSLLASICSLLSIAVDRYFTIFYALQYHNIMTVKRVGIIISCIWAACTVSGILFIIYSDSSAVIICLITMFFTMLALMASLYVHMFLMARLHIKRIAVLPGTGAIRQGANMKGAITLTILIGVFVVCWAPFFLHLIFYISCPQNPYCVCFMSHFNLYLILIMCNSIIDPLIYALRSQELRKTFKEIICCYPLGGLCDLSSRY

B3: 4-phenylbutyryl-His-DPhe-Arg-Trp-Gly-Lys(hex-5-ynoyl)-NH2 (peptide)
peptide: {Butanoyl(4-Ph)}-H[dF]RWGK(Butanoyl(4-ethynyl))-NH2
SMILES: C#CCCCC(=O)NCCCC[C@H](NC(=O)CNC(=O)[C@H](Cc1c[nH]c2ccccc12)NC(=O)[C@H](CCCNC(=N)N)NC(=O)[C@@H](Cc1ccccc1)NC(=O)[C@H](Cc1c[nH]cn1)NC(=O)CCCc1ccccc1)C(N)=O
notes: Synthetic; alkyne-functionalised form of compound 1; also called compound 4
Ki [3]: 0.24 nM
Ki [7]: 1.17 nM

B4: H-Tyr-Val-Nle-Gly-His-DNal(2′)-Arg-DTrp-Asp-Arg-Phe-Gly-NH2 (peptide)
peptide: YVLGHXRWDRFG
modifications: Nle; DNal(2′); DTrp; C-terminal amide (NH2)
notes: Synthetic; also called compound 5; ligand 5
Ki [4]: 0.76 nM

B6: 4-phenylbutyryl-His-DPhe-Arg-Trp-Gly-Lys(Mpr-IR800CW)-NH2 (peptide)
peptide: {Butanoyl(4-Ph)}-H[dF]RWGK([Mpa-IR800CW])-NH2
notes: Near-infrared dye conjugate of the MC1R ligand; also called MC1RL-800; MC1RL-800 probe
Ki [1]: 0.4 nM
probe-related fluorescence signal in A375/MC1R tumors after co-injection of 0.25 ug NDP-a-MSH, relative to the unblocked tumor, 2 hr after injection [8]: 1.54 fold
probe-related fluorescence signal in A375 tumor after co-injection of 0.25 ug NDP-a-MSH, relative to the unblocked tumor, 2 hr after injection [8]: 1.4 fold
renal uptake of MC1RL-800 after co-injection of 1 nmol/kg MC4R/5R-selective ligand (SEQ ID NO:10), compared to control animals, 2 hr after injection [9]: 1.56 fold

Now from value to binder:

Ki [1]: 0.3 nM
B1: MC1R-Cy5 probe (peptide)
peptide: {Butanoyl(4-Ph)}-H[dF]RWGK([Mpa-Cy5])-NH2
notes: also called Cy5 conjugated ligand; MC1R-635 probe

Ki [2]: 4.4 nM
Ki [3]: 4.19 nM
Ki [4]: 3.9 nM
1R/4R (selectivity ratio against MC4R) [5]: 1.05
1R/5R (selectivity ratio against MC5R) [6]: 0.93
B2: H-Lys(hex-5-ynoyl)Tyr-Val-Nle-Gly-His-DNal(2′)-Arg-DPhe-Asp-Arg-Phe-Gly-NH2 (peptide)
peptide: H-K(Butanoyl(4-ethynyl))YV[Nle]GH[d2Nal]R[dF]DRFG-NH2
SMILES: C#CCCCC(=O)NCCCC[C@H](N)C(=O)N[C@@H](Cc1ccc(O)cc1)C(=O)N[C@H](C(=O)N[C@@H](CCCC)C(=O)NCC(=O)N[C@@H](Cc1c[nH]cn1)C(=O)N[C@H](Cc1ccc2ccccc2c1)C(=O)N[C@@H](CCCNC(=N)N)C(=O)N[C@H](Cc1ccccc1)C(=O)N[C@@H](CC(=O)O)C(=O)N[C@@H](CCCNC(=N)N)C(=O)N[C@@H](Cc1ccccc1)C(=O)NCC(N)=O)C(C)C
notes: Synthetic; alkyne analogue of ligand 7; also called compound 8; ligand 8

Ki [2]: 0.77 nM
Ki [3]: 5.64 nM
Ki [4]: 0.71 nM
1R/4R (selectivity ratio against MC4R) [5]: 0.13
1R/5R (selectivity ratio against MC5R) [6]: 0.13
B5: H-Tyr-Val-Nle-Gly-His-DNal(2′)-Arg-DPhe-Asp-Arg-Phe-Gly-NH2 (peptide)
peptide: H-YV[Nle]GH[d2Nal]R[dF]DRFG-NH2
SMILES: CCCC[C@H](NC(=O)[C@@H](NC(=O)[C@@H](N)Cc1ccc(O)cc1)C(C)C)C(=O)NCC(=O)N[C@@H](Cc1c[nH]cn1)C(=O)N[C@H](Cc1ccc2ccccc2c1)C(=O)N[C@@H](CCCNC(=N)N)C(=O)N[C@H](Cc1ccccc1)C(=O)N[C@@H](CC(=O)O)C(=O)N[C@@H](CCCNC(=N)N)C(=O)N[C@@H](Cc1ccccc1)C(=O)NCC(N)=O
notes: Synthetic; also called compound 7; ligand 7

Ki [3]: 0.17 nM
B7: 4-phenylbutyryl-His-DPhe-Arg-Trp-NH2 (peptide)
peptide: {Butanoyl(4-Ph)}-H[dF]RW-NH2
notes: Synthetic peptidomimetic; also called compound 1

Ki [3]: 1.77 nM
Ki [4]: 58.2 nM
B8: Ac-Homophenylalanine-His-DPhe-Arg-Trp-NH2 (peptide)
peptide: Ac-[hPhe]H[dF]RW-NH2
notes: Synthetic; also called compound 2
